Data reported in US20040229298A1.
Ends that are not written are not given here.

Tests used:
Assay in all cases: G assay ELISA, 10 uM biotin peptide on anti-GST-captured GST-PDZ
[1] = target: GST-CARD14 PDZ domain 1 (human)
[2] = target: GST-HTRA 3 PDZ domain 1 (human)
[3] = target: GST-EBP50 PDZ domain 1, clone #311.1 (human)
[4] = target: GST-KIAA0380 PDZ domain 1, clone #25.6 (human)
[5] = target: GST-PAR3 PDZ domain 3, clone #182.1 (human)
[6] = target: GST-Serine Protease PDZ domain 1 (human)

B1: HPV16 E6 C-terminal PDZ ligand peptide (20 mer, biotinylated), P03126 139-158 (peptide)
peptide: WTGRCMSCCRSSRTRRETQL
modifications: not fully specified; cysteine pairing not given here
B1 gave an Ave OD [1] of 0.342 A450 nm, an OD S/N (ratio to GST only well) [1] of 1.52 and an Ave OD [2] of 0.413 A450 nm. The OD S/N (ratio to GST only well) [2] was 1.34, the Ave OD [3] was 0.432 A450 nm and the OD S/N (ratio to GST only well) [3] was 2.05. It also gave an Ave OD [4] of 0.376 A450 nm, an OD S/N (ratio to GST only well) [4] of 1.95 and an Ave OD [5] of 0.445 A450 nm. The OD S/N (ratio to GST only well) [5] was 2.07, the Ave OD [6] was 0.343 A450 nm and the OD S/N (ratio to GST only well) [6] was 1.55.
